In publication PMC2185549:
One block for each substance: values may come before it.

Experiments:
[1] = molecular target: Sec61 complex of Th50-PK-RM (thermolysin 50 μg/ml, on ice) (canine (endogenous in canine pancreas microsomes)) (UniProt P38377); test: radioligand binding
[2] = molecular target: Sec61 complex of C1-PK-RM (chymotrypsin 1 μg/ml) (canine (endogenous in canine pancreas microsomes)) (UniProt P38377); test: radioligand binding
[3] = molecular target: Sec61 complex of C30-PK-RM (chymotrypsin 30 μg/ml) (canine (endogenous in canine pancreas microsomes)) (UniProt P38377); test: radioligand binding
[4] = molecular target: Sec61 complex of T3-PK-RM (trypsin 3 μg/ml) (canine (endogenous in canine pancreas microsomes)) (UniProt P38377); test: radioligand binding
[5] = molecular target: Sec61 complex of C5-PK-RM (chymotrypsin 5 μg/ml) (canine (endogenous in canine pancreas microsomes)) (UniProt P38377); test: radioligand binding
[6] = molecular target: Sec61 complex of T10-PK-RM (trypsin 10 μg/ml) (canine (endogenous in canine pancreas microsomes)) (UniProt P38377); test: SEC
[7] = molecular target: Sec61 complex of C30-PK-RM (chymotrypsin 30 μg/ml) (canine (endogenous in canine pancreas microsomes)) (UniProt P38377); test: SEC
[8] = molecular target: Sec61 complex of C5-PK-RM (chymotrypsin 5 μg/ml) (canine (endogenous in canine pancreas microsomes)) (UniProt P38377); test: SEC

Substance: canine ribosomes (nontranslating 80S ribosomes) (complex)
fold fewer ribosome binding sites than Th2-PK-RM [1]: 3 fold | fold lower affinity than the sites of undigested PK-RM [2]: < 2 fold | fold defect in ribosome binding against undigested PK-RM [3]: > 10 fold | fold lower affinity than the sites of undigested PK-RM [3]: < 2 fold | percent of the high affinity ribosome binding sites of intact PK-RM [4]: 5% | fold lower affinity than the sites of undigested PK-RM [5]: < 2 fold | fold reduction of ribosome binding against undigested PK-RM [5]: 3 fold

fold less RNCs bound than undigested PK-RM [6]: 5 fold | fold less RNCs bound than undigested PK-RM [7]: 2.7 fold | percent of the bound RNCs insensitive to high salt extraction [7]: 80% | fold decrease in RNC binding against undigested PK-RM [8]: 2 fold
Substance: ribosome-nascent chain complex bearing pPL86 (from UniProt P01239 1-86)

Substance: ribosome-nascent chain complex bearing ffLuc77
fold reduction of RNC binding relative to intact microsomes [7]: 3.5 fold
